Assay [1] concerns the target SLAM (Canis lupus familiaris) (UniProt Q95MM9). The conditions noted are these: cited from earlier work.
The target in assay [2] is head domain of measles virus hemagglutinin, IC-B wild-type strain (measles virus, IC-B strain) (UniProt Q786F2). Put plainly: SPR.
Assay [3] addresses head domain of measles virus hemagglutinin, Edmonston vaccine strain (measles virus, Edmonston strain) (UniProt P08362). Put plainly: SPR. A general note: Surface plasmon resonance follows binding to a sensor surface in real time, without labels.
Sequence of UniProt P08362 (P08362 149-617): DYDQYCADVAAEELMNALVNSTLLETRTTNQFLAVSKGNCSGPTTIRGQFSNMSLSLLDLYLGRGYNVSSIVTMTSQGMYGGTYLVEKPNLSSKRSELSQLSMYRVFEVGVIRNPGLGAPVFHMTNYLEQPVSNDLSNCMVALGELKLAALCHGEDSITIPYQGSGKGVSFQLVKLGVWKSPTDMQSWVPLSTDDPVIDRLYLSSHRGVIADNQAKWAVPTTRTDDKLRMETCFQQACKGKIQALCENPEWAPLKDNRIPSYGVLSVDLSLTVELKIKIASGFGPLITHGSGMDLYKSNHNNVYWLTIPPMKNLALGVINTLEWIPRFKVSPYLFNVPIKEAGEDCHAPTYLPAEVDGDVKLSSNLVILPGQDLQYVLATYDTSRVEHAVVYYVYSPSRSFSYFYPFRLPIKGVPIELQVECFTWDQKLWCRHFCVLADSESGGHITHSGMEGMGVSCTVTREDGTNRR

Sequence of UniProt Q786F2 (Q786F2 149-617): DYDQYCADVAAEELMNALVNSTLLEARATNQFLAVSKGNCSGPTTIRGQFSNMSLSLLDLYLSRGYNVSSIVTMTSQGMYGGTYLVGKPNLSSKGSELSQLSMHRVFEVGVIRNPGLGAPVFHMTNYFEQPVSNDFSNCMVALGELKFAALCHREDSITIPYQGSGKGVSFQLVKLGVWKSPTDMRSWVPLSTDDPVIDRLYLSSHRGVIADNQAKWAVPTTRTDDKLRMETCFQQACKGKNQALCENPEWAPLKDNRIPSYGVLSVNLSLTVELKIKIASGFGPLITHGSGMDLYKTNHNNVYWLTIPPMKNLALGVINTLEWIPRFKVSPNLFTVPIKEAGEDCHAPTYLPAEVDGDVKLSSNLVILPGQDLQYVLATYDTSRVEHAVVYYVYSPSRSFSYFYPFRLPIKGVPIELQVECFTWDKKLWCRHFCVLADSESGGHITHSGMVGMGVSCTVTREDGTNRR
Sequence of UniProt Q95MM9 (Q95MM9 27-342): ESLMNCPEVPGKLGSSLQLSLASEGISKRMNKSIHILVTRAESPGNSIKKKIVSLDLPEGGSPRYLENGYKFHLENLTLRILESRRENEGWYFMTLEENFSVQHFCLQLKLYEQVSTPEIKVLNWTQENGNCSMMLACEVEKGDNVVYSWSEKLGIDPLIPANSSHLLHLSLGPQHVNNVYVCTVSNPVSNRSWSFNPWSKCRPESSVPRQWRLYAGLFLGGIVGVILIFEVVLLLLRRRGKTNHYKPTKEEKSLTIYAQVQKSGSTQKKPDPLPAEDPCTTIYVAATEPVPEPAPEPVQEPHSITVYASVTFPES

What is called Kd is a measure of binding affinity in units of concentration. In the case of “CDV-A75/17 hemagglutinin (from UniProt Q65999)”, the Kd in assay [1] is 8000 nM.

As a reminder, the koff is the first-order rate constant of dissociation. For orientation: kon means the rate constant with which the complex forms. A high value points to fast association. In assay [2], “soluble SLAM ectodomain (V-set and C2) from cotton-top tamarin (domain or fragment)” had a Kd of 243 nM, a koff of 0.00241 s⁻¹ and a kon of 9890 M⁻¹ s⁻¹. For the same substance, in assay [3], the Kd stood at 46.7 nM, the koff stood at 0.000952 s⁻¹ and the kon was 20400 M⁻¹ s⁻¹.

The record behind these values is article PMC6722581.
